From patent publication US11034736B2, “Anti-viral cnidarins” (priority 2014, dated 2021) come the findings set out here.

Test [1] addresses T1, HIV-1IIIB gp120 (Human immunodeficiency virus type 1 group M subtype B, UniProt P04578). The following applies: ELISA. As for the experimental part: High protein binding Greiner 96-well plates (VWR, Bridgeport, N.J.) were coated with 1 pmol/well of recombinant HIV-1IIIIB gp120 (Immuno Diagnostics, Woburn, Mass.) or recombinant HIV-1HXB2 gp41 (Vybion Inc., Ithaca, N.Y.) at 4° C. overnight. The wells were emptied and then blocked with 200 μl/well of 3% non-fat dry milk (Bio-Rad, Hercules, Calif.) blocking solution for 2 hrs. A control plate was incubated with blocking solution only. After washing three times with PBST, 0.5-log10 serial dilutions of rCNID-1-Trx were added to triplicate wells of gp120−, gp41− and the blocking solution control plate, and the plates were incubated for 2 hrs. The plates were washed with PBST and 100 W/well of a 1:250 dilution of polyclonal rabbit anti-CNID-1 antibody was added and allowed to incubate for 1 hr, followed by three washes with PBST. Goat anti-rabbit (H+L), peroxidase conjugated secondary antibody (Thermo Fisher Scientific Inc., Rockford, Ill.) was added to each well (100 μl/well of a 1:1000 dilution) and further incubated for 1 hr, followed by three washes with PBST. The TMB 2-component Microwell peroxidase substrate kit (KPL Inc., Gaithersburg, Md.) was used for peroxidase detection: 100 W/well, incubation for 5-10 min and the reaction was stopped by addition of 0.5M HCl (100 W/well) before reading the absorbance at 450 nm.
Briefly, 100 ng/wells of glycosylated recombinant HIV-1IIIB gp120 (Immuno Diagnostics, Woburn, Mass.) or nonglycosylated HIV-1 gp120 (MyBioSource LLC, San Diego, Calif.) was added to the wells of two 96-well plates, and incubated overnight at 4° C. The plates were washed and blocked as previously described. Serial dilutions of rCNID-1-Trx were added (100 W/well); incubation done for 2 hrs. The plates were then washed and visualized using anti-CNID-1 polyclonal antibodies as above.

The target in test [2] is T1, HIV-1IIIB gp120. The procedure:
Additional ELISA studies were performed to assess the effect of monosaccharides on CNID-1 binding to gp120 and gp41. The plates were prepared with native HIV-1IIIB gp120 (Advanced Biotechnologies, Columbia, Md.) or recombinant HIV-1HxB2 gp41 (Vybion Inc., Ithaca, N.Y.), and 100 ng/well rCNID-1-Trx was added in the presence or absence of 1 mM concentrations of the following sugars: glucose, mannose, galactose, fucose, xylose, N-acetylglucosamine (GlcNAc), N-acetylgalactosamine (GalNAc), or 100 ng/well α-acid glycoprotein (to act as a carrier for sialic acid). The plates were then washed and visualized using anti-CNID-1 polyclonal antibodies as above.
Plates to test the effect of sCD4 on CNID-1 binding to gp120 were prepared with recombinant HIV-1IIIB gp120 (Immuno Diagnostics, Woburn, Mass.) at 4° C. overnight (100 ng/well) and blocked as previously described. Serial dilutions of rCNID-1-Trx were added in the presence (test plate) or absence (control plate) of 50 ng/well sCD4 (sCD4-183, 2-domain, NIH AIDS Research & Reference Reagent Program, Germantown, Md.) and incubated for 1 hr. Plates were washed and visualized as above. Plates to test for the effect of CV-N, SVN or GRFT on CNID-1 binding to gp120 were prepared with recombinant HIV-NIIIB gp120 (Immuno Diagnostics, Woburn, Mass.) at 4° C. overnight (100 ng/well) and blocked as previously described. CV-N (100 ng/well), SVN (100 ng/well) or GRFT (130 ng/well) were added (PBST was added to control wells) and incubated for 30 minutes, followed by serial dilutions of rCNID-1-Trx and further incubated for 75 minutes. The plates were then washed and visualized using anti-CNID-1 polyclonal antibodies as previously outlined.
Plates were prepared with recombinant HIV-1IIIIB gp120 (Immuno Diagnostics, Woburn, Mass.) at 4° C. overnight (100 ng/well) and blocked as previously described. rCNID-1-Trx were added: 250 ng/well for sCD4 test plate or 500 ng/well for the GRFT test plate, and PBST (50 μl/well) to the control plate; incubation done for 2 hrs. The plates were washed as before and serial dilutions of sCD4 (sCD4-183, 2-domain, NIH AIDS Research & Reference Reagent Program, Germantown, Md.) or GRFT were added; incubated for 1 hr 10 minutes. Plates were washed as before. Primary antibodies were added at 100 μl/well: mouse anti-CD4 (ProSci Inc., Poway, Calif.) at 1:1000 dilution or rabbit anti-GRFT at 1:500 dilution; incubation done for 1 hr. The plates were washed as before and peroxidase conjugated secondary antibodies (Thermo Fisher Scientific Inc., Rockford, Ill.) were added at 100 μl/well: goat anti-mouse (sCD4 plate) or goat anti-rabbit (GRFT plate) at a 1:1000 dilution; incubation for 1 hr. The plates were then washed and visualized as previously outlined.

B1: CNID-1: HIV-inhibitory protein from soft coral Synthecium sp.; 172 amino acids, 18,122 Da, SEQ ID NO: 1 (protein)
chain: GRATLGQLKTSTIPPVTFDVPFDGANIPQDVRFTIATVNGGKGALYNAELGESAGHTIVLESDGDHPIPGTFDPKSGRGLDYLPRGLVLFSSHNYVGNMKMYTEPDSDITADFPPGTPFGVSSAITGEGSAFQLNTGIDHTGEFEIIPPNTKRNLAGVFDNEIRSVSPTGGK
For the molecule B1, the “Binding to glycosylated versus non-glycosylated gp120” value with HIV-1IIIB gp120 [1] (100 ng/well) is reported as “bound better to glycosylated gp120 as compared to non-glycosylated gp120”. Further, in the test with HIV-1IIIB gp120 [1] (100 ng/well gp120), the “Binding to gp120” value was “specific binding to viral glycoprotein gp120 in a concentration-dependent manner”. Besides, in the test with HIV-1IIIB gp120 [2] (CV-N 100 ng/well), the “CNID-1 binding to gp120 after CV-N pre-treatment” value was “did not affect CNID-1 binding”. In addition, in the test with HIV-1IIIB gp120 [2] (ELISA), the “CNID-1 binding to gp120 after GRFT pretreatment” value is “reduced CNID-1 binding to gp120”, the “CNID-1 binding to gp120 after pretreatment with sCD4” value is “did not block CNID-1 binding to gp120” and the “sCD4 binding to gp120 after pre-treatment with CNID-1” value is “did not block subsequent binding of sCD4 to gp120”. Further, the “CNID-1 binding to gp120 after SVN pre-treatment” value with HIV-1IIIB gp120 [2] (SVN 100 ng/well) is on record as “did not affect CNID-1 binding”. For the same molecule, the “GRFT binding to gp120 after pretreatment with CNID-1” value in the test with HIV-1IIIB gp120 [2] (rCNID-1 500 ng/well) is recorded as “did not inhibit GRFT binding to gp120”. Besides, in the test with HIV-1IIIB gp120 [2] (α-acid glycoprotein as carrier of sialic acid), the “CNID-1 binding to gp120 in presence of α-acid glycoprotein” value is “not inhibited”.
